Some results are limits rather than exact numbers.

The target in one test is T1, HLA-A*01 (human).
T1 construct: MHC monomer made peptide-receptive by UV cleavage of a UV-sensitive ligand; also called peptide-receptive MHC class I monomer
In words: UV peptide-exchange ELISA; +++ = yield >50%. An excerpt:
Candidate peptides for T cell based therapies according to the present invention were further tested for their MHC binding capacity (affinity). The individual peptide-MHC complexes were produced by UV-ligand exchange, where a UV-sensitive peptide is cleaved upon UV-irradiation, and exchanged with the peptide of interest as analyzed. Only peptide candidates that can effectively bind and stabilize the peptide-receptive MHC molecules prevent dissociation of the MHC complexes. To determine the yield of the exchange reaction, an ELISA was performed based on the detection of the light chain (β2m) of stabilized MHC complexes. The assay was performed as generally described in Rodenko et al. (Rodenko et al., 2006).
96 well MAXISorp plates (NUNC) were coated over night with 2 ug/ml streptavidin in PBS at room temperature, washed 4× and blocked for 1 h at 37° C. in 2% BSA containing blocking buffer. […] Peptide-MHC monomers of the UV-exchange reaction were diluted 100-fold in blocking buffer. Samples were incubated for 1 h at 37° C., washed four times, incubated with 2 ug/ml HRP conjugated anti-β2m for 1h at 37° C., washed again and detected with TMB solution that is stopped with […]. Absorption was measured at 450 nm.
Molecule NLDEEKQLLY [NLDEEKQLLY (SEQ ID NO: 424)] came in with a peptide exchange yield of 50 to 75%.

FIDYPKKEDY [FIDYPKKEDY (SEQ ID NO: 143)]: the peptide exchange yield was 50 to 75%.

Molecule NVDPVQHTY [NVDPVQHTY (SEQ ID NO: 432)] yielded a peptide exchange yield of 50 to 75%.

Turning to FTEQWTDGY [FTEQWTDGY (SEQ ID NO: 408)], the peptide exchange yield lay within 50 to 75%.

LSDPSGPKSY [LSDPSGPKSY (SEQ ID NO: 418)]: the peptide exchange yield was in the range of 50 to 75%.

Turning to TLDENPGVRY [TLDENPGVRY (SEQ ID NO: 440)], the peptide exchange yield lay within 50 to 75%.

NLDQATRVAY [NLDQATRVAY (SEQ ID NO: 426)] came in with a peptide exchange yield of 50 to 75%.

As for VLDQGKITEY [VLDQGKITEY (SEQ ID NO: 445)], the peptide exchange yield lay within 50 to 75%.

The molecule VVDEDHELIY [VVDEDHELIY (SEQ ID NO: 447)] registered a peptide exchange yield of 50 to 75%.

Take EVAEPSVLFDLY [EVAEPSVLFDLY (SEQ ID NO: 142)]: the peptide exchange yield is 50 to 75%.

In turn, YLDIPNPRY [YLDIPNPRY (SEQ ID NO: 448)] came in with a peptide exchange yield of 50 to 75%.

For STDNFNCKY [STDNFNCKY (SEQ ID NO: 438)], the peptide exchange yield was 50 to 75%.

With KTDESLTKY [KTDESLTKY (SEQ ID NO: 414)], the peptide exchange yield was in the range of 50 to 75%.

Turning to FVDKPVAY [FVDKPVAY (SEQ ID NO: 145)], the peptide exchange yield is 50 to 75%.

Molecule ESDVGVVVY [ESDVGVVVY (SEQ ID NO: 141)] came in with a peptide exchange yield of 50 to 75%.

The molecule FLDSQNLSAY [FLDSQNLSAY (SEQ ID NO: 144)] returned a peptide exchange yield of 50 to 75%.

Turning to ECDMAFHIY [ECDMAFHIY (SEQ ID NO: 139)], the peptide exchange yield fell in the range of 50 to 75%.

Molecule TLDAGKFQIY [TLDAGKFQIY (SEQ ID NO: 439)] displayed a peptide exchange yield of 50 to 75%.

TTDTVIRSY [TTDTVIRSY (SEQ ID NO: 444)] came in with a peptide exchange yield of 50 to 75%.

As for ESDREELNY [ESDREELNY (SEQ ID NO: 140)], the peptide exchange yield is 50 to 75%.

LLDPRSYHTY [LLDPRSYHTY (SEQ ID NO: 415)] displayed a peptide exchange yield of 50 to 75%.

Another test concerns the target T2, HLA-B*07 (human).
T2 construct: MHC monomer made peptide-receptive by UV cleavage of a UV-sensitive ligand; also called peptide-receptive MHC class I monomer
In words: UV peptide-exchange ELISA; ++++ = yield >75%. A general note: An ELISA detects its analyte on a solid surface through an enzyme-linked reagent.
In the case of APYKSVTSL [APYKSVTSL (SEQ ID NO: 466)], the peptide exchange yield was > 75%.

Turning to YPRPGTPAA [YPRPGTPAA (SEQ ID NO: 464)], the peptide exchange yield is > 75%.

In the case of YPLFRGINL [YPLFRGINL (SEQ ID NO: 268)], the peptide exchange yield was > 75%.

Consider KPRPDVTNEL [KPRPDVTNEL (SEQ ID NO: 471)], for which the peptide exchange yield is > 75%.

For the molecule RPHKPGLYL [RPHKPGLYL (SEQ ID NO: 475)], the peptide exchange yield is > 75%.

With VPTLRSEL [VPTLRSEL (SEQ ID NO: 286)], the peptide exchange yield is > 75%.

With KPFSSFTSM [KPFSSFTSM (SEQ ID NO: 467)], the peptide exchange yield is > 75%.

For the molecule FPSFLTNSL [FPSFLTNSL (SEQ ID NO: 285)], the peptide exchange yield was > 75%.

MPMAGDMNGL [MPMAGDMNGL (SEQ ID NO: 460)]: the peptide exchange yield was > 75%.

Turning to VPENHSVAL [VPENHSVAL (SEQ ID NO: 289)], the peptide exchange yield is > 75%.

As to SPNSYFRVL [SPNSYFRVL (SEQ ID NO: 470)], the peptide exchange yield is > 75%.

As for TPKAGPTL [TPKAGPTL (SEQ ID NO: 463)], the peptide exchange yield was > 75%.

Take VPRPIFSQL [VPRPIFSQL (SEQ ID NO: 465)]: the peptide exchange yield is > 75%.

In the case of SPQRLRGLL [SPQRLRGLL (SEQ ID NO: 291)], the peptide exchange yield was > 75%.

Take APGPRFLVT [APGPRFLVT (SEQ ID NO: 270)]: the peptide exchange yield is > 75%.

Take RPRSALPRLLLP [RPRSALPRLLLP (SEQ ID NO: 293)]: the peptide exchange yield is > 75%.

With GPTPNTGAAL [GPTPNTGAAL (SEQ ID NO: 294)], the peptide exchange yield was > 75%.

Turning to MPLPWSLALPL [MPLPWSLALPL (SEQ ID NO: 272)], the peptide exchange yield was > 75%.

As for LPRLLPAL [LPRLLPAL (SEQ ID NO: 474)], the peptide exchange yield was > 75%.

As to RPFHTRATV [RPFHTRATV (SEQ ID NO: 462)], the peptide exchange yield is > 75%.

In the case of APYRPPDISL [APYRPPDISL (SEQ ID NO: 290)], the peptide exchange yield was > 75%.

As for SPMYGQAGL [SPMYGQAGL (SEQ ID NO: 468)], the peptide exchange yield was > 75%.

Take NPRATDAQL [NPRATDAQL (SEQ ID NO: 472)]: the peptide exchange yield was > 75%.

As for KPEGTRIAV [KPEGTRIAV (SEQ ID NO: 295)], the peptide exchange yield is > 75%.

For RPRAPVTPA [RPRAPVTPA (SEQ ID NO: 281)], the peptide exchange yield was > 75%.

With APRAPRLML [APRAPRLML (SEQ ID NO: 269)], the peptide exchange yield is > 75%.

Consider RPHSLSSEL [RPHSLSSEL (SEQ ID NO: 283)], for which the peptide exchange yield is > 75%.

As for LPRALLSSL [LPRALLSSL (SEQ ID NO: 473)], the peptide exchange yield is > 75%.

These data come from patent US11352401.
